From US20260049134A1 (UNIVERSITY OF FLORIDA RESEARCH FOUNDATION, published 2026)
Changes are numbered by the printed parent chain. In names and notes the source's numbering stands.

T1: HHLA2 (B7-H7)
T1 construct: coated protein in the ELISA; also called HHLA2-Fc (R&D Systems)
T1 chain: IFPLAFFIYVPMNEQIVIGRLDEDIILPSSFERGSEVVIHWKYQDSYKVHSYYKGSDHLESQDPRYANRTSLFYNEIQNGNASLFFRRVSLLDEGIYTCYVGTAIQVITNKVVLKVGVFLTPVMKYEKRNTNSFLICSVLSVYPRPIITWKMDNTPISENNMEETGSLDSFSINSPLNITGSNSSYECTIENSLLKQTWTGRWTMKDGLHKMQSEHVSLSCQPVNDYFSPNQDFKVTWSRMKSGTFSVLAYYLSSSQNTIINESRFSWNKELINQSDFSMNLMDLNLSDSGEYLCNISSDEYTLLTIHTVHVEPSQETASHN

T2: GARS-His (Sino Biological) (human, UniProt P41250 37-739, limits assumed)
T2 construct: Bought; also called GARS1; glycyl-tRNA synthetase; not shown: His tag of the bought protein
T2 sequence: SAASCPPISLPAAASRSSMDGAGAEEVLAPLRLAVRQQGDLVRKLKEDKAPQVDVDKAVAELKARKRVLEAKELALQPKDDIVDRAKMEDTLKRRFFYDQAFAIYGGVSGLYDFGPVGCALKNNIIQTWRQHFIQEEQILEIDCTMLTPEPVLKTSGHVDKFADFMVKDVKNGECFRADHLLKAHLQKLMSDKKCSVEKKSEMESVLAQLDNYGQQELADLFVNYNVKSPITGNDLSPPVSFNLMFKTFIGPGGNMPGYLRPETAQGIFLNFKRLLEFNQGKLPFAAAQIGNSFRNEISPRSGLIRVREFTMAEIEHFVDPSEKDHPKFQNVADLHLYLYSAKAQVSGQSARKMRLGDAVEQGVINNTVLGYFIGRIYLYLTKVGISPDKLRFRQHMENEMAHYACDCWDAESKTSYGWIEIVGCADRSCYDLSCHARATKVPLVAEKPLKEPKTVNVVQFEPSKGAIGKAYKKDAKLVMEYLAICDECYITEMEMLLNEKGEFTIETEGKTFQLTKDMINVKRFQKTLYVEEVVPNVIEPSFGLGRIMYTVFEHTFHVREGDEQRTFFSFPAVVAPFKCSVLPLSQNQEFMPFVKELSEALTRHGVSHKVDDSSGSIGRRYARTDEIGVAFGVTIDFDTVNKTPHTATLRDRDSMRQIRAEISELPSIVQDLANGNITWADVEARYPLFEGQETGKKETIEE

T3: ANXA1
T3 construct: coated protein in the ELISA; also called ANXA1-His (R&D Systems)
T3 chain: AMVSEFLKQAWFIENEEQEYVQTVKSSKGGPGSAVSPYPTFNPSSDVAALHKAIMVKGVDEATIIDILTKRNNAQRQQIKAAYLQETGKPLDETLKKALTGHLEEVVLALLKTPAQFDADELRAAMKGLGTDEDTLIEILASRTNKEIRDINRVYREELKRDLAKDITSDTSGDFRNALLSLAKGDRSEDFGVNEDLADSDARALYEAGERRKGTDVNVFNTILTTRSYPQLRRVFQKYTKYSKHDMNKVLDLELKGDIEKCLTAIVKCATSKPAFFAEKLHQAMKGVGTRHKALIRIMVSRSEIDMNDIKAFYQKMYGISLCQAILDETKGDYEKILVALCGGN

T4: CADM1-His (Acro Biosystems) (human, UniProt Q9BY67 45-374)
T4 construct: Bought; also called CADM1/IGSF4A; not shown: His tag of the bought protein
T4 sequence: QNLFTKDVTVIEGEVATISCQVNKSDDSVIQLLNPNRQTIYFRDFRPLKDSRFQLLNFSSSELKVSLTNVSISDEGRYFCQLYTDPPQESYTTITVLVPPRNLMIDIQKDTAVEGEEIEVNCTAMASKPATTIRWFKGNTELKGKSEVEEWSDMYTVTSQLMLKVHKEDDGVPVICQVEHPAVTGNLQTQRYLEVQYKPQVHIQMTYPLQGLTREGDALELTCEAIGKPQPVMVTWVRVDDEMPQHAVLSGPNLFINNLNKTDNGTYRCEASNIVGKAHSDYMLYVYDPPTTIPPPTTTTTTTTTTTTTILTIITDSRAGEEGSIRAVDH

T5: SELL (L-Selectin)
T5 construct: coated protein in the ELISA; also called SELL-Fc-His (R&D Systems)
T5 chain: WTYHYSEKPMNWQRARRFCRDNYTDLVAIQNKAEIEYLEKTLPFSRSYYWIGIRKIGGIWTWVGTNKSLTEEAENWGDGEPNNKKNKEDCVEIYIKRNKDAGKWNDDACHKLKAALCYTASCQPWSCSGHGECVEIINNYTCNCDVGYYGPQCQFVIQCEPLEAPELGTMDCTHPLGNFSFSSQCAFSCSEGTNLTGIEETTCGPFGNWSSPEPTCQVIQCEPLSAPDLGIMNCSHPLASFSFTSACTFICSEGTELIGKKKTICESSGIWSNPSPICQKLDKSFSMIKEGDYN

B1: HW-8 chimeric rabbit-human IgG1 LA/LA/PG (antibody, V domains shown)
VH: QSLEESGGRLVTPGTPLTLTCTVSGFSLSSYAMSWVRQAPGKGLEWIGAISTGGSTTYASWAKGRFTISKTSSTTVDLKMTSLTTEDTATYFCVRHFRLWGPGTLVTISS
VL: QVLTQTPSSVSAAVGGTVTIKCQASQSIGSALAWFQQKPGQRPKLLIYRASNLASGVPSRFKGSGSGTEFALTISGVQREDAATYYCLGGAAAVWAFGAGTNVEIKR
notes: Fc-silenced (L234A/L235A/P329G) IgG1, kappa; Alexa Fluor 647-labeled in single-step flow cytometry; Cluster C-45
B2: HW-101 chimeric rabbit-human IgG1 LA/LA/PG (antibody, V domains shown)
VH: QEQLVESGGRLVTPGTPLTLTCKASGFSLGKYDMSWVRQAPGKGLEWIGTIYAGSGSTWYASWAKGRFTISKTSTTVDLKMTSLTTEDTATYFCARDFLGVNSIWGPGTLVTISS
VL: SFVLTQPASVQVNLGQTVSLTCTADTLSRSYASWYQQKPDQAPVLLIHRDTSRPSGVPDRFSGSNSGNTATLTISGAQAGDEADYYCATSDGSGSNFHFVFGGGTQLTVTG
notes: Fc-silenced (L234A/L235A/P329G) IgG1, lambda; Alexa Fluor 647-labeled in single-step flow cytometry; Cluster C-97
B3: HW-56 chimeric rabbit-human IgG1 LA/LA/PG (antibody, V domains shown)
VH: QSVKESEGGLFKPTDTLTLTCTASGFTVSTNAVTWVRQAPGNGLEYIGTIGRSGSAYFASWAKRRSTLTRDINLNTVTLKMTSLTAADTATYFCVRGSPGYRTAISIWGPGTLVTISS
VL: AVMTQTPSSTSAAVEGTVTINCQASQSISNRLSWFQQKPGQPPKLLIYQASTLASGVPSRFKGSGSGTEFTLTISGVQREDAATYYCLGSYSSSDASFGGGTKLEIKR
notes: as for B1
B4: HW-81 chimeric rabbit-human IgG1 LA/LA/PG (antibody, V domains shown)
VH: QKQLVESGGGLVTPGGTLTLTCTVSGFSLSSNGVSWVRQAPGKGLEYIGLIRSIGSTYYATWAKGRFTISKTSTTVDLKITSPTTEDTATYFCARGGYRNGFKLWGPGTLVTVSS
VL: QPVLTQSPSVSAALGASAKLTCTLSSAHKTYYIEWYQQQHPGKAPRYLMQLQSDGSYTKGTGVPDRFSGSSSGADRYLIISSVQAEDEADYICGVIDSAVYVFGGGTQLTVTG
notes: Fc-silenced (L234A/L235A/P329G) IgG1, lambda; Alexa Fluor 647-labeled in single-step flow cytometry; Cluster C-45
B5: HW-17 chimeric rabbit-human IgG1 LA/LA/PG (antibody, V domains shown)
VH: QSLGESRGRLVTPDETLTLTCTVSGIDLSSNAMSWVRQAPGEGLEWIGTINTGGRAYYASWAKGRFTISRTSTTVDLKMTSLTTEDTATYFCARERYSDGRAYDIWGPGTLVTISS
VL: SFVLTQPASVQVNLGQTVSLTCTADTLSRRYASWYQQKPGQAPVLLIYTDSNRPSGIPDRFSGSSSGNTATLTISGAQAGDEADYYCATDDGSGSIYQYVFGGGTQLTVTG
notes: Fc-silenced (L234A/L235A/P329G) IgG1, lambda; Alexa Fluor 647-labeled in single-step flow cytometry; Cluster C-1
B6: HW-113 chimeric rabbit-human IgG1 LA/LA/PG (antibody, V domains shown)
VH: QKQLVESGGGLVQPGGSLTLTCTVSGFSLNKYYMGWFRQAPGKGLEWIGVISRSGDTYYSSWAKGRFTISKASTTVDLRITSPTTEDTATYFCARDASSPGFHGDRLDLWGQGTLVTVSS
VL: B2 VL with D40G, H48Y, N65S, S93I, F97Y, H98L, F99W
notes: Fc-silenced (L234A/L235A/P329G) IgG1, lambda; Alexa Fluor 647-labeled in single-step flow cytometry
B7: HW-97 chimeric rabbit-human IgG1 LA/LA/PG (antibody, V domains shown)
VH: QKQLVESGGRLVTPGTPLTLTCTVTGIDLSSHGMSWVRQAPGKGLEWIGVIYPSGSTWYASWARGRFTISKTSTTVDLKMTSLTTEDTATHFCARGDVGGADNNIWGPGTLVTVSS
VL: B5 VL with N13D, D25E, R30S, T49R, S51T, N52S, I57V, D90S, I96S
notes: Fc-silenced (L234A/L235A/P329G) IgG1, lambda; Alexa Fluor 647-labeled in single-step flow cytometry; Prototype of cluster C-97

Columns and labels:
[1] = biological target: T1, HHLA2 (B7-H7); assay: ELISA on coated HHLA2-Fc
Protocol: (§1) Recombinant purified ECDs (50-150 ng) of each putative target protein were coated, incubated with 150 ng of the indicated primary antibody, and binding was detected using a peroxidase-conjugated anti-human Fab secondary antibody. Heatmap represents averages of technical triplicates. (8B) Target validation via siRNA knockdown. H929 cells were transfected with siRNA pools targeting the putative antibody targets ICAM1, CADM1, and PTPRG. Cells were then subjected to cognate IgG binding analysis via flow cytometry. (NT, non-targeting siRNA).
(§2) ELISA ELISA was conducted as described previously. Briefly, 50-150 ng of antigen was coated overnight in half-area 96-well plates at 4° C., blocked with 3% BSA at 37° C. for 1 h, and 150 ng of chimeric rabbit/human IgG1 was added, incubating for 2 h at 37° C. […] After incubating at 37° C. for 15 min-1 h (depending on intensity of controls), data were acquired using a SpectraMax M5 plate reader (Molecular Devices).

[2] = biological target: T6, APP; assay: ELISA on coated APP-His, 150 ng IgG1; None 0.092
T6 construct: His-tagged; coated protein in the ELISA; also called APP-His (Acro Biosystems)
Protocol: as §1, §2

[3] = biological target: T2, GARS-His (Sino Biological); assay: ELISA on coated GARS-His, 150 ng IgG1; None 0.099
Protocol: as §1, §2

[4] = biological target: T1, HHLA2 (B7-H7); assay: ELISA on coated HHLA2-Fc, 150 ng IgG1; None 0.087
Protocol: as §1, §2

[5] = biological target: T3, ANXA1; assay: ELISA on coated ANXA1-His, 150 ng IgG1; None 0.098
Protocol: as §1, §2

[6] = biological target: T4, CADM1-His (Acro Biosystems); assay: ELISA on coated CADM1-His, 150 ng IgG1; None 0.059
Protocol: as §1, §2

[7] = biological target: T5, SELL (L-Selectin); assay: ELISA on coated SELL-Fc-His, 150 ng IgG1; None 0.096
Protocol: as §1, §2

Binder | binding result [1] | ELISA Absorbance (405 nm-570 nm) [2] | ELISA Absorbance (405 nm-570 nm) [3] | ELISA Absorbance (405 nm-570 nm) [4] | ELISA Absorbance (405 nm-570 nm) [5] | ELISA Absorbance (405 nm-570 nm) [6] | ELISA Absorbance (405 nm-570 nm) [7]
B1 | no binding (tested: 150 ng IgG1 per well) | 0.071 | 0.081 | 0.073 | 0.077 | 0.05 | 0.074
B2 | no binding (tested: 150 ng IgG1 per well) | 0.061 | 0.093 | 0.069 | 0.066 | 0.525 | 0.072
B3 | no binding (tested: 150 ng IgG1 per well) | 0.112 | 0.651 | 0.076 | 0.082 | 0.059 | 0.117
B4 | no binding (tested: 150 ng IgG1 per well) | 0.081 | 0.641 | 0.072 | 0.065 | 0.05 | 0.083
B5 | no binding (tested: 150 ng IgG1 per well) | 0.062 | 0.074 | 0.076 | 0.073 | 0.048 | 0.072
B6 | no binding (tested: 150 ng IgG1 per well) | 0.074 | 0.088 | 0.071 | 0.073 | 0.058 | 0.088
B7 | no binding (tested: 150 ng IgG1 per well) | 0.067 | 0.079 | 0.079 | 0.075 | 0.679 | 0.075
